Assay: label from the status in PepcDB records
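Note: failed if final PepcDB status was selected cloned or expressed and not failed if soluble or beyond.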

Row | Sequence | protein production
1 | MITTIISSVVAFATTNIDDIFILLVLFSQVRTEVIRKEGRAVREKATRKKLYIVIGQYLGFSMIIFLSIIGSLSSFFIPVSWIGLLGFVPIYMGVKGLLSLRSYKSNEVIDNVTVSLFKVASITLANGADNISIYIPMFASQTLETNIVTLVIFFSMIAIWCFISYKLIKAPILAKVLEENCHIIVPIVLIGLGMFILFRSGTIGLFS | failed
2 | MITTKLKLSVTNDYLLRINENRYVLIDTGYKEDWKLFLKRLKENGIKINEISYVILTHHHDDHVGFLNKLVSENKDIRVVMSDKTNELIKVGENDQTHGGGLINKRIEFLIRYKNMYVSKVLGVKKENNLKFPPYESRNNDIIFTGEVTLRELGIDLPGKIIETPGHTIDSISILFEDGDCFVGDAAANMLKLCGTKNCVIFIMDKKQYYESWDKMIKVGVKKVYPAHGGEFSVGRLKKNIWRNL | failed
3 | MITTTIFPGRYVQGAGAINILEEELSRFGERAFVVIDDFVDKNVLGENFFSSFTKVRVNKQIFGGECSDEEIERLSGLVEEETDVVVGIGGGKTLDTAKAVAYKLKKPVVIVPTIASTDAPCSALSVIYTPNGEFKRYLFLPRNPDVVLVDTEIVAKAPARFLVAGMGDALATWFEAESCKQKYAPNMTGRLGSMTAYALARLCYETLLEYGVLAKRSVEEKSVTPALEKIVEANTLLSGLGFESGGLAAAHAIHNGLTVLENTHKYLHGEKVAIGVLASLFLTDKPRKMIEEVYSFCEEVGLPTTLAEIGLDGVSDEDLMKVAEKACDKNETIHNEPQPVTSKDVFFALKAADRYGRMRKNLT | not failed
4 | MITVNFLILLLGLVFLVKGSDYFVKSASTIAKKLGVSEFVIGLTLVAIGTSIPELASSIAASIQQASGIVIGNVVGSNIANVGLIVGVAALLSPMKTEIDMLKRDGYIMLFSAVLFFVFAFNRELSMLEAGLFVLLYIAYVFFLFEEAEKYEGKLHFKEFITYFFKFKYINSAMQKLNGNRNRNSDSDRNSDSGNGNERLEGGFAKDIFTLVLSCAAIVIGAKYFVEESIFFAELLGIPDTVIGTTLVAVGTSLPELVVTVSAARQGYGSIALGNVIGSNITNIFLILGLSGLFYPLSVAEMSLFFTTPVMIAISLILLIFISTGWEIKRWEGVVLMMFYVAFLVVLFYI | failed
5 | MITVVGTGTGAPLSADAARALAGAGLVVGGRRHLAAAALPDGAERIVLGPLAPALDAIEAALEKQRRVVVLASGDPGFFGIVRALAERFGAERLDVRPGVSSVATAFARLGLPWDDAVVVSAHGRDLRTALNVCRSRPKVAVLTGPGAGPAELGAALAHGFGARVLVVASALGDPEHERVERVTPAEAAARDWGTAVSVVLCLDASRALAPVRTVAGPPAGPARWALEEGDFAHRDSMITKFEVRALALARLGPRLGDLVWDVGAGSGSVAVECARLGAAVTAVEKTLDGVERIHANARAHGVDVHVVHGAAPDALTALPDPDAVFIGGGGRELPALVTACARRARRTVVVAMAALDRVPAVREALTGAGFGCDGVLLQSSRLAPLPGDVTRLAATNPVFLLWGARPPARTEGALQ | failed
6 | MITVVKRNGRIEPLDITKIQKYTKDATDNLEGVSQSELEVDARLQFRDKITTEEIQQTLIKTAVDKIDIDTPNWSFVASRLFLYDLYHKVSGFTGYRHLKEYFENAEEKGRILKGFKEKFDLEFLNSQIKPERDFQFNYLGIKTLYDRYLLKDANNNPIELPQHMFMSIAMFLAQNEQEPNKIALEFYEVLSKFEAMCATPTLANARTTKHQLSSCYIGSTPDNIEGIFDSYKEMALLSKYGGGIGWDFSLVRSIGSYIDGHKNASAGTIPFLKIANDVAIAVDQLGTRKGAIAVYLEIWHIDVMEFIDLRKNSGDERRRAHDLFPALWVCDLFLKRVLEDAMWTLFDPYECKDLTELYGQDFEKRYLEYEKDPKIIKEYINAKDLWKKILMNYFEAGLPFLAFKDNANRCNPNAHAGIIRSSNLCTEIFQNTAPNHYYMQIEYTDGTIEFFEEKELVTTDSNITKCANKLTSTDILKGKPIYIATKVAKDGQTAVCNLASINLSKINTEEDIKRVVPIMVRLLDNVIDLNFYPNRKVKATNLQNRAIGLGVMGEAQMLAEHQIAWGSKEHLEKIDALMEQISYHAIDTSANLAKEKGVYKDFENSEWSKGIFPIDKANNEALKLTEKGLFNHACDWQGLREKVKANGMRNGYLMAIAPTSSISILVGTTQTIEPIYKKKWFEENLSGLIPVVVPNLNVETWNFYTSAYDIDAKDLIKAAAVRQKWIDQGQSLNVFLRIENASGKTLHDIYTLAWKLGLKSTYYLRSESPSIDEKSVLDRSVECFNCQ | failed
7 | MIVASSAAYRLHQGDALRLLCGIDSASVDAVITDPPYCSGAMRMADRFKPTKRKYINNGTKHVAPDFDCDFRDHRGFLAWSSQWLSECRRVTRPGGVLLVFTDWRMLPTLTDAVQSAGWAWQGIVVWDKTPACRPQLGRFRSQAEFIVWASCGLMNPKAHPVTPVGVFATGTAPREKRHQVGKPLALMEHLVKIVPPASTVLDPFAGSGTTGVAALRAGHRFIGMELSPWYCDVTKQRLADST | failed
8 | MIVEKVLIVDPIDGEFTGDVEIEEGKIVKVEKRECIPRGVLMPGFVDPHIHGVVGADTMNCDFSEMEEFLYSQGVTTFLATTVSTSLEKMKEILRKARDYILENPSTSLLGVHLEGPYISKEKKGAHSEKHIRPPSERELSEIDSPAKMLTFAPEIESSELLLRLVKRDIVLSAGHSIATFEEFMKFYKEGVKRITHFPNGLKPLHHREIGITGAGLLLDDVKLELICDGVHLSREMVKLVYKVKKANGIVLVTDSISAAGLKDGTTTLGDLVVKVKDGVPRLEDGTLAGSTLFFSQAVKNFRKFTGCSITELAKVSSYNSCVELGLDDRGRIAEGTRADLVLLDEDLNVVMTIKEGEVVFRSR | not failed
9 | MIVNEPVPDTFEDTPAKDRDPDWFKRAVFYEVLVRSFQDSNGDGIGDLKGLTAKLDYLQWLGVDCLWLPPFFKSPLRDGGYDVSDYTAVLPEFGDLADFVEFVDAAHQRGMRVIIDFVMNHTSDQHPWFQESRRNPDGPYGDYYVWADDDKQFQDARIIFVDTEASNWTYDPVRKQYYWHRFFSHQPDLNYENPVVQEEMISALKFWLDLGIDGFRLDAVPYLYQEEGTNCENLPRTHDFLKRVRKEIDAQYPDTVVLAEANQWPEDVVDYFGDYAAGGDECHMAFHFPVMPRIFMAVRRESRYPVSEILAKTPAIPSGCQWGIFLRNHDELTLEMVTDEERDYMYAEYAKDPRMRANIGIRRRLAPLLDNDRNQIELFTALLLSLPGSPILYYGDEIGMGDNIWLGDRDAVRTPMQWTPDRNAGFSSSDPGRLFLPTIMDPVHGYQVTNVEASMASPSSLLHWTRRMIEIRKQNVAFGLGTYTELPSSNPAVLAFLREHEDDLVLCVHNFSRFAQPTELDLSAFDGRHPVELFGGVRFPAVGDLPYLLTLGGHGFYWFRLRKDAA | failed
10 | MIVRSKPNLISVLISLKGSIAKRIALRSLLVTLLASAIVLIETLHPAYFSKVNATPFTLLGLSLSIFMSFRNNACYDRWYEARKALGTVVTEVRSMIRETQVLEDTRARSAILRDLCGFAHALKARLRREDELSAAETWLSQLPPASTSNLPDSLLRQIARQCSDQAQAGRLSEWRYLLLANQLAAITGAQSTCERIKATPLPFPYTLLLHRTSYMFCILLPFAMAEPLGWLTPIFTAIVSYTFFGLDAIGDELEDPFGHDENDLPLSAIVRNIEREILEALGATELPPALEPVDYVLS | failed
11 | MIVTLLGTGDSPGTPILNCHCRTCEDARRKGWERKRFSVMVQNNGKTVLIDTSPDLRRQLLDCGVEKVDAVIWTHCHFDHFGGFGEFYRVQNNVKVYSTPQIHEDIGHFMKFMSYKPVEVEAFENFTIAGMDFTLLPVNHPPVSAVGVKVEWKGYKVVVSGDTNVRIPEATLREMQNPDLLIVEALAPTGRFRKHMNAKEALELAKRLNAGKVVLTHLGHFFPPHHLAIKSYPVGEDYQSFSFGEGRLDEFFGDLEHHHHHH | failed
12 | MIWLQLVVVLAAIFVGARLGGIGLGVMGGLGLGVLTFVFHLQPTSPPIDVLLMIAAVVTAAGVLQAAGGLDYLVSVAERILRSNPDRITFLGPLVTYVFTLFAGTGHVAYSVLPVISEVARETGVRPERPMSISVIASQQAITASPISAATVALLGMLSTGAAGAAFHIELIDILKVCIPSTLLGVLAAAFVANRMGKDLEEDPEYQDRVARGLAAPTGRQALAAADGGEPVRAAAPVTAKIAVGIFLAAALAVVLFGSFPGMRPQWTTASGVTKLGMPHAIEMVMLSAAALMLMVCRVDVSKVATGSVFGAGVQAVIAIFGIAWMGDTFFAGNMEVLGGSIKGMVTAAPWLFAAALFALSVLLYSQAATVRALMPLGIALGIPAPALMAMFPAVNGYFFIPNYPTIVAAINFDRTGTTRIGRWVLNHSFMVPGLISTVVAIATGLVIVRFMF | failed
13 | MIWSLLKIYVLMLCTISTVYNTFLLIVCVVGCCVQMEEIVFETKDAVDWSYRSEGVVNLVLAYSGSSPTFLGKVMRIKKLRNTRNENRDRSGSCLTTQEKLIWGEIKDLVSCQNKEIVDYLFVKHVMKPLLGHKYVTPGICLPVEKEFLESVKKIVTSQRHSWRANTLSVDTNRSFALLMDDLTIFSHGQVEDHKPCLTVEIKPKCGFLSSSSFIAEENVIKKSISRFEMYQVLKLRENQISQISEYDPLDLFSGSKDRIHKAIKALYSTPQNSLQVFLNGSLVFGGFRGGICKTTSKLELAFEHTLKDFFKTEDDCGLRANAFIELVAETVYASGALDQLLEVQKLDKYNIEGAIHAYYDLVDQPCKACQELESSKLSNQFGSMHSLPQDEKVNILKDFLISSTAIDCSVMISFRPIETGLSRSSSHGNIQLESTKQEFEYKIHFIDLDMRPLKRMEAYHESDKKITKTYQEMLKKKKGDQPRRF | failed
14 | MIYDFCVIGGGIVGLATAMRLLEVYPGCSLVLMEKELSLAQHQTGHNSGVIHAGVYYAPGSFKAKLCARGAELTKSFCTEHSIPYEVCGKLVVASNKDSLARLGSLEERAKQNGLATERLDALELRRREPNVAGEGALFVKSSGIVDYGVVSNSMANVIIQSGGQILLGQTVVSIEEHGNHVNIASEGSSLSAKKLVVCAGLQSDRLATLAGLKLDCQIVPFRGEYYRLSSHLDYSVKHLIYPVPEVGLPFLGIHITRMINGGVTVGPN | failed
15 | MIYDLHSHSTASDGMLTPTELILRAVEQKVDVLALTDHDTLAGIQEAKIAAESQPIQLISGVEISALWQNKNIHLTALDIDEHHPALIELLQHHAVLREQRAVEIGEKLAKAGIPNAYHGAKMLANGEVTRAHYARFLVQQDYVRNIEHAFKKYLGTGKIAYVKPQWSSISHVIDVTHQAGGVICLAHPLRYKMTARWLRALIEHFKQAGGDGIEVASCGQRPDQRQLIARWASEFDLYASVGSDFHYPTGWIELGKSLTLPTTCKPIWQLFTTQ | failed
16 | MIYRFTIISDEVDDFVREIQIDPEATFFDLHEAILKAANYTNDQMTSFFICDDDWEKEKEITLEEMDNNPEMDSWIMKETRLNELIEDEKQKLLYVFDYMTERCFFIELSEIITGKEIKGAKCTKKSGEAPKQTVDFEEMAAGGGSLDLDENFYGDQDFDMEDFDAEGFDVNDGAAGGGSSYDEDKFLEHHHHHH | not failed
17 | MIYRKATEKDIAQLVELRKKQLEDEGIAPINNIDTELTHFFELSFKKNSFISWISEEDNEIIATSGVCFYKYPPSYLNPSGKVAYITNMYTKYEYRSRGIALALLKLVILEAKKRDYLFLRLHASDMGRPIYEEIGFKPFDDFMEMNLSLNRNGELEHHHHHH | not failed
18 | MIYWGMGMLVIAWLADGGISRLSDLIKEPLALGVLLFCGVWVLGLLWSDSAVIFQGKWRKYFILLTFIPLFSLLSRERLPWVTGALLCSYLGMVILGSYQWAMQEMQGISLLGMSYLHYSAALGIGVILAVFLGWETLSREKRWLSVLSWLIAILLLFLQFNQSARGILLATLMALLLMIVLRYRAEWRMLTGGLTAIMAMVILFATSSDIFHDRLQQAGTDLRSFQQGDYQTSVGYRLAMWDVGLHGIAEHPLLGHGSGMAKKYFDDSIITYKQGIYRNLPEFQETAHFHNELIEIGMHLGLLGILAFVFLLWCWFQIFRQNRMALLGSAIVCFICISGLTDTFLLYSGTPPFLLTVTAIAVCWRKYREDPDRIGQKYTSGERNGNQNPQMFLMSA | failed

From a protein production outcome set (Wang et al. 2014)
